First the molecules themselves.
B1: Hairpin Ribozyme (parent)
chain: GUCCUCUUUCACGUGCGCGUGAAAGAGAGAAGUGAACCAGAGAAACACACGUUGUGGUAUAUUACCUGGUA

In the data set the parent is B1. Nature of the data set: self-cleavage, relative activity (ratio to wild type); higher = more cleavage; co-transcriptional.
Consider U33G C38A, for which the self-cleavage worked out at 0.139.

For U33G C38U, the self-cleavage is 0.204.

Turning to U33G C38G, the self-cleavage turned out to be 0.128.

For the variant A35G U62C, the self-cleavage came out at 0.338.

For A35G U62A, the self-cleavage stood at 0.368.

Regarding A35U A41U, the self-cleavage was determined as 1.41.

For A35U U67C, the self-cleavage came to 0.176.

Regarding G34A C38G, the self-cleavage came out at 0.195.

Take G34A C38A: the self-cleavage was 0.267.

With A35C A41G, the self-cleavage is 0.907.

For A35C A41C, the self-cleavage was determined as 1.13.

With A35G U58A, the self-cleavage worked out at 0.73.

On to A35G G40A, for which the self-cleavage was 0.24.

For the variant A35G G40U, the self-cleavage was found to be 0.161.

As for A35G U60C, the self-cleavage was found to be 0.917.

Regarding A36G C66U, the self-cleavage stood at 0.482.

For A35G A71U, the self-cleavage was determined as 0.837.

For the variant A35U A43G, the self-cleavage came to 0.0794.

Consider A35C C48A, for which the self-cleavage amounted to 0.103.

As to A35C A49G, the self-cleavage amounted to 0.341.

In the case of A35C A49C, the self-cleavage was 0.147.

On to A36G U60G, for which the self-cleavage stood at 0.62.

Consider A36G U60A, for which the self-cleavage came to 0.779.

As to A36G U60C, the self-cleavage worked out at 1.1.

Consider U33G U60C, for which the self-cleavage stood at 0.195.

With G34U A45U, the self-cleavage stood at 0.351.

As to U33G G68C, the self-cleavage was 0.0688.

Consider A36G A61C, for which the self-cleavage was 0.328.

A36C C46U: the self-cleavage is 0.15.

For A36C C46G, the self-cleavage was determined as 0.134.

For the variant A35C A45C, the self-cleavage was 0.16.

Take G34A U55A: the self-cleavage came to 0.518.

For the variant G34A U55G, the self-cleavage is 0.541.

On to A36C A45G, for which the self-cleavage is 0.133.

On to A35G A39U, for which the self-cleavage is 0.265.

Regarding A35G A47U, the self-cleavage was 0.178.

Regarding A35G A47G, the self-cleavage worked out at 0.142.

For the variant A35G A47C, the self-cleavage came to 0.312.

For G34C A59G, the self-cleavage turned out to be 0.174.

For G34A G68A, the self-cleavage was 0.246.

Turning to G34A G68C, the self-cleavage stood at 0.283.

Consider G34U G56U, for which the self-cleavage turned out to be 0.225.

A36G U67A: the self-cleavage amounted to 0.195.

U33G G34A: the self-cleavage was determined as 0.317.

A36C U60A: the self-cleavage came out at 0.439.

For the variant G34C A61U, the self-cleavage came out at 1.24.

Take G34C U67A: the self-cleavage is 0.451.

As for A36U A41C, the self-cleavage was 0.654.

On to G34A U63A, for which the self-cleavage was determined as 0.259.

With G34A U63G, the self-cleavage was 0.157.

As for A35G C48G, the self-cleavage turned out to be 0.213.

As to A35G U70C, the self-cleavage worked out at 0.796.

With A35G U70G, the self-cleavage stood at 0.711.

Turning to A35G U70A, the self-cleavage was 0.927.

Turning to G34C A64C, the self-cleavage stood at 0.578.

Take G34A U62C: the self-cleavage was determined as 0.38.

Regarding G34A U62G, the self-cleavage is 0.347.

U33G A35U: the self-cleavage came to 0.16.

As to U33G A35C, the self-cleavage is 0.333.

A35U A61U: the self-cleavage is 0.0854.

Consider U33G A64C, for which the self-cleavage stood at 0.0723.

As to A36U A45C, the self-cleavage was 0.224.

Turning to A36U A45G, the self-cleavage turned out to be 0.106.

As for G34A C66G, the self-cleavage was determined as 0.184.

With G34A C66U, the self-cleavage was found to be 0.609.

A35G G42U: the self-cleavage came out at 0.304.

Regarding A36G U53G, the self-cleavage turned out to be 0.507.

Turning to A36G U53A, the self-cleavage was 1.2.

In the case of G34C U62C, the self-cleavage is 1.1.

On to G34C A71U, for which the self-cleavage is 1.27.

On to G34C G40A, for which the self-cleavage came to 0.576.

For the variant G34U U62C, the self-cleavage was determined as 1.23.

Turning to G34A G56C, the self-cleavage is 0.13.

Consider G34A G56U, for which the self-cleavage came to 0.128.

In the case of G34A A45G, the self-cleavage was 0.435.

G34A A45U: the self-cleavage stood at 0.0941.

In the case of A35C A39U, the self-cleavage was 0.445.

As to A35C A61U, the self-cleavage came out at 0.125.

Turning to G34U C46A, the self-cleavage was 0.239.

For the variant A35U A39C, the self-cleavage was 0.208.

Turning to A36C U70G, the self-cleavage was 0.671.

Regarding A35C C38G, the self-cleavage was determined as 0.112.

In the case of A35C C38U, the self-cleavage came out at 0.312.

Turning to G34C G69A, the self-cleavage amounted to 0.896.

U33G A45U: the self-cleavage stood at 0.0465.

Turning to G34U U70C, the self-cleavage was determined as 1.43.

Consider G34U U70A, for which the self-cleavage worked out at 1.43.

Consider A35C U53G, for which the self-cleavage was determined as 0.403.

As to A35C C65G, the self-cleavage stood at 0.387.

Consider A35C C65U, for which the self-cleavage came out at 0.433.

Regarding A36G U63G, the self-cleavage was 0.3.

Turning to G34U U52C, the self-cleavage turned out to be 0.926.

Regarding G34U U52G, the self-cleavage turned out to be 0.896.

Regarding A35U A44G, the self-cleavage was determined as 0.234.

Consider A36C A47G, for which the self-cleavage came to 0.0823.

Take U33G U58A: the self-cleavage is 0.0636.

For the variant A36G G54U, the self-cleavage is 0.816.

A36G C46A: the self-cleavage is 0.0586.

In the case of A36G G69C, the self-cleavage was 0.449.

In the case of A35G A45C, the self-cleavage was found to be 0.106.

On to A35G A45G, for which the self-cleavage is 0.0332.

Turning to G34A C46G, the self-cleavage was determined as 0.159.

In the case of U33G G42A, the self-cleavage came to 0.0778.

As to G34U U58G, the self-cleavage is 1.25.

Turning to G34U U58C, the self-cleavage came out at 1.53.

Regarding A36C C65A, the self-cleavage was determined as 0.52.

For A35C U52A, the self-cleavage was found to be 1.14.

For A35U G68A, the self-cleavage was determined as 0.29.

On to G34C C37U, for which the self-cleavage is 1.34.

A36G C38U: the self-cleavage was determined as 0.523.

On to A36G C38A, for which the self-cleavage was 0.146.

As to G34U G42C, the self-cleavage was determined as 1.17.

With A36C G51U, the self-cleavage turned out to be 0.678.

With A36G A71C, the self-cleavage turned out to be 1.23.

For the variant G34C G54C, the self-cleavage was found to be 0.735.

Turning to G34A A49U, the self-cleavage was determined as 0.174.

For the variant A36C C48A, the self-cleavage came out at 0.142.

Turning to A36C C48G, the self-cleavage stood at 0.118.

With A36G G57U, the self-cleavage stood at 0.317.

Turning to A36G A59C, the self-cleavage turned out to be 0.102.

As for A36G A59G, the self-cleavage came out at 0.146.

Turning to A36G A59U, the self-cleavage stood at 0.0811.

With G34A G57C, the self-cleavage turned out to be 0.247.

For G34A G57U, the self-cleavage is 0.461.

U33G G69C: the self-cleavage turned out to be 0.038.

G34C G51U: the self-cleavage came out at 1.4.

With G34U U55A, the self-cleavage came out at 1.48.

Consider G34U U55G, for which the self-cleavage was 1.27.

On to A35C A71U, for which the self-cleavage came to 0.668.

As for A36C U63G, the self-cleavage was 0.0757.

A35G A64G: the self-cleavage was found to be 0.277.

On to A35U G54U, for which the self-cleavage was 0.455.

On to G34U A59G, for which the self-cleavage amounted to 0.23.

As to G34U A59U, the self-cleavage is 0.192.

For the variant A35C G40A, the self-cleavage was found to be 0.208.

Take G34U C65G: the self-cleavage amounted to 1.35.

U33G G56C: the self-cleavage worked out at 0.0919.

Turning to U33G G56U, the self-cleavage is 0.244.

Take A36C G40C: the self-cleavage stood at 0.135.

For A36C G40U, the self-cleavage is 0.122.

For G34C U63C, the self-cleavage came out at 0.506.

As for A35C A43U, the self-cleavage worked out at 0.194.

Consider A35C A43G, for which the self-cleavage was 0.155.

In the case of A36G U62G, the self-cleavage turned out to be 0.221.

Regarding G34A G51U, the self-cleavage stood at 1.28.

For A36G G51C, the self-cleavage came out at 0.629.

On to G34A A59U, for which the self-cleavage is 0.203.

Consider G34A A59C, for which the self-cleavage turned out to be 0.148.

In the case of A35U U52A, the self-cleavage was 0.715.

As to A35U U52C, the self-cleavage came out at 0.811.

As to A35U U52G, the self-cleavage came out at 0.553.

Take G34A C65A: the self-cleavage turned out to be 1.26.

Turning to G34U U63A, the self-cleavage was 0.243.

For the variant A35C C46U, the self-cleavage amounted to 0.221.

U33G A41C: the self-cleavage was 0.156.

Take U33G A41U: the self-cleavage turned out to be 0.251.

G34A C37G: the self-cleavage came out at 0.519.

U33G U62C: the self-cleavage stood at 0.0629.

A35C G56A: the self-cleavage worked out at 0.161.

In the case of A35C G56U, the self-cleavage turned out to be 0.153.

With G34C, the self-cleavage worked out at 1.4.

Consider G34U, for which the self-cleavage turned out to be 1.42.

On to G34A, for which the self-cleavage was 1.21.

Take A36U A39C: the self-cleavage was 0.084.

With A35C G54C, the self-cleavage was 0.513.

Consider A35U G69U, for which the self-cleavage worked out at 0.111.

A35U G69A: the self-cleavage worked out at 0.184.

The values are drawn from the RNAGym collection of RNA variant scans (doi:10.7554/elife.80360).
